Reference: paper PMC3281905, “Structure-Based Rational Design of a Toll-like Receptor 4 (TLR4) Decoy Receptor with High Binding Affinity for a Target Protein” (PLoS ONE, 2012)

B1: TLR4 decoy receptor, TV3 (wild-type) (designed binder)
chain: EPCVEVVPNITYQCMELNFYKIPDNLPFSTKNLDLSFNPLRHLGSYSFFSFPELQVLDLSRCEIQTIEDGAYQSLSHLSTLILTGNPIQSLALGAFSGLSSLQKLVAVETNLASLENFPIGHLKTLKELNVAHNLIQSFKLPEYFSNLTNLEHLDLSSNKIQSIYCTDLRVLHQMPLLNLSLDLSLNPMNFIQPGAFKEIRLKELALDTNQLKSVPDGIFDRLTSLQKIWLHTNPWDCSCPRIDYLSRWLNKNSQKEQGSAKCSGSGKPVRSIICP
modifications: limits from the PDB 2Z65 entity (paper residue number = entity position + 26); secreted from insect cells, immobilized by amine coupling
B2: myeloid differentiation protein 2 (MD2) (natural protein, human)
chain: QKQYWVCNSSDASISYTYCDKMQYPISINVNPCIELKRSKGLLHIFYIPRRDLKQLYFNLYITVNTMNLPKRKEVICRGSDDDYSFCRALKGETVNTTISFSFKGIKFSKGKYKCVVEAISGSPEEMLFCLEFVILHQPN
notes: human MD2 (myeloid differentiation protein 2); Secreted from insect cells with the vector pAcGP67; also called human MD2; source: monomeric MD2 from Superdex 75)

Key:
Assay in all cases: SPR; Biacore 3000; decoy receptor or variant covalently immobilised on a CM5 chip (EDC/NHS, 500-800 RU); MD2 4 nM to 2 µM in HBS-EP injected at 60 µL/min for 90 sec, 30 min dissociation; 1:1 Langmuir model
Details in all cases: both partners purified
[1] = molecular target: B2
[2] = molecular target: TLR4 decoy receptor TV3 M41E/H159Q (human | hagfish, UniProt O00206 27-228; O00206 27-228, M41E | H159Q)
TLR4 decoy receptor TV3 M41E/H159Q, sequence (O00206 other isoform, or with tags, fused parts or gaps M41E | H159Q | M41E | H159Q | M41E H159Q): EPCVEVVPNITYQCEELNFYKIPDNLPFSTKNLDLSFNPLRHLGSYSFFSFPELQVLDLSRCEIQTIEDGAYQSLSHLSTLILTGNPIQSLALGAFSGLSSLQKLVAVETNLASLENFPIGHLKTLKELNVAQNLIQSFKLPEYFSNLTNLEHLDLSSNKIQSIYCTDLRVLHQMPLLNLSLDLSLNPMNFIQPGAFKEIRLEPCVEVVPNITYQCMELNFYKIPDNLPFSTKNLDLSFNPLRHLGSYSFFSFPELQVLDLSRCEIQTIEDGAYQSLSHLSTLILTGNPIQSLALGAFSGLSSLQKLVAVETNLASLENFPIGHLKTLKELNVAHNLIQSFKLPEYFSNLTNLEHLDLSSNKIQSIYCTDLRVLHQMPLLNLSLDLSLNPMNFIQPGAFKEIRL

[3] = molecular target: TLR4 decoy receptor TV3 V134L/H159Q (human | hagfish, UniProt O00206 27-228; O00206 27-228, V134L | H159Q)
[4] = molecular target: TLR4 decoy receptor TV3 F63W/V134L (human | hagfish, UniProt O00206 27-228; O00206 27-228, F63W | V134L)
[5] = molecular target: TLR4 decoy receptor TV3 M41E/F63W (human | hagfish, UniProt O00206 27-228; O00206 27-228, M41E | F63W)
TLR4 decoy receptor TV3 M41E/F63W, sequence (O00206 other isoform, or with tags, fused parts or gaps M41E | F63W | M41E | F63W | M41E F63W): as the sequence (O00206 other isoform, or with tags, fused parts or gaps M41E | H159Q | M41E | H159Q | M41E H159Q) above, with F37W, Q133H counted along it

[6] = molecular target: TLR4 decoy receptor TV3 F63W/D181E (human | hagfish, UniProt O00206 27-228; O00206 27-228, F63W | D181E)
[7] = molecular target: TLR4 decoy receptor TV3 N156I (human | hagfish, UniProt O00206 27-228; O00206 27-228, N156I)
[8] = molecular target: TLR4 decoy receptor TV3 M41E (human | hagfish, UniProt O00206 27-228; O00206 27-228, M41E)
TLR4 decoy receptor TV3 M41E, sequence (O00206 other isoform, or with tags, fused parts or gaps M41E | M41E | M41E): as the sequence (O00206 other isoform, or with tags, fused parts or gaps M41E | H159Q | M41E | H159Q | M41E H159Q) above, with Q133H counted along it

[9] = molecular target: TLR4 decoy receptor TV3 V134L (human | hagfish, UniProt O00206 27-228; O00206 27-228, V134L)
[10] = molecular target: TLR4 decoy receptor TV3 D181E (human | hagfish, UniProt O00206 27-228; O00206 27-228, D181E)
[11] = molecular target: TLR4 decoy receptor TV3 F63L (human | hagfish, UniProt O00206 27-228; O00206 27-228, F63L)
[12] = molecular target: TLR4 decoy receptor TV3 F63W (human | hagfish, UniProt O00206 27-228; O00206 27-228, F63W)
[13] = molecular target: TLR4 decoy receptor TV3 S184K (human | hagfish, UniProt O00206 27-228; O00206 27-228, S184K)
[14] = molecular target: TLR4 decoy receptor TV3 V132F (human | hagfish, UniProt O00206 27-228; O00206 27-228, V132F)
[15] = molecular target: TLR4 decoy receptor TV3 H159Q (human | hagfish, UniProt O00206 27-228; O00206 27-228, H159Q)

Binder: B1
Kd [1]: 78 nM
koff [1]: 0.00222 s⁻¹
kon [1]: 28400 M⁻¹ s⁻¹

Binder: B2
Kd [2]: 145 nM
koff [2]: 0.000461 s⁻¹
kon [2]: 3160 M⁻¹ s⁻¹
Kd [3]: 0.138 nM
koff [3]: 6.12e-06 s⁻¹
kon [3]: 44100 M⁻¹ s⁻¹
Kd [4]: 283 nM
koff [4]: 0.00103 s⁻¹
kon [4]: 3660 M⁻¹ s⁻¹
Kd [5]: 0.026 nM
koff [5]: 5.23e-07 s⁻¹
kon [5]: 20100 M⁻¹ s⁻¹
Kd [6]: 39 nM
koff [6]: 2.27e-05 s⁻¹
kon [6]: 583 M⁻¹ s⁻¹
Kd [7]: 4.07 nM
koff [7]: 8.05e-05 s⁻¹
kon [7]: 19700 M⁻¹ s⁻¹
Kd [8]: 3.21 nM
koff [8]: 5.29e-05 s⁻¹
kon [8]: 16400 M⁻¹ s⁻¹
Kd [9]: 4.11 nM
koff [9]: 0.00011 s⁻¹
kon [9]: 26700 M⁻¹ s⁻¹
Kd [10]: 48.2 nM
koff [10]: 0.000924 s⁻¹
kon [10]: 19100 M⁻¹ s⁻¹
Kd [11]: 43.3 nM
koff [11]: 0.00115 s⁻¹
kon [11]: 26500 M⁻¹ s⁻¹
Kd [12]: 2.84 nM
koff [12]: 3.97e-05 s⁻¹
kon [12]: 13900 M⁻¹ s⁻¹
Kd [13]: 183 nM
koff [13]: 0.00141 s⁻¹
kon [13]: 7660 M⁻¹ s⁻¹
Kd [14]: 22.2 nM
koff [14]: 0.00154 s⁻¹
kon [14]: 69100 M⁻¹ s⁻¹
Kd [15]: 4.3 nM
koff [15]: 1e-05 s⁻¹
kon [15]: 2140 M⁻¹ s⁻¹
